We go through one substance from patent US20240018252A1.

pKd: −log10 of the molar value.

This assay concerns the target human CD3 (huCD3ed) (human) (UniProt P07766). Kind of assay: Biacore SPR, antibody as ligand, hCD3ed 80 nM-0.64 nM, kinetic fit. (In general: In SPR one partner is held on a chip, and binding of the other changes the refractive index at the surface.)

Sequence of human CD3 (huCD3ed) (human) (P07766 23-126, chain 1 of 2): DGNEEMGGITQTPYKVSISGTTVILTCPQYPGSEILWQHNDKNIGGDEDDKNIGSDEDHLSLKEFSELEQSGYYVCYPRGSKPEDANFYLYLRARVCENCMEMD
Sequence of human CD3 (huCD3ed) (human) (P04234 22-105, chain 2 of 2, further chain): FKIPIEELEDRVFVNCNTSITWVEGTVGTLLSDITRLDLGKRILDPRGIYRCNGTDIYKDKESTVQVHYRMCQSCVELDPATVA

Usually pKd stands for the Kd on a negative log10 scale, so that one unit is a factor of ten. The low end stands for a high Kd, the high end for a low Kd. With SP34 (antibody), the pKd was 7.97 and the t1/2 came to 3.8 min.
